Consider eight molecules from publication PMC8008175 (The Journal of Biological Chemistry, 2021).

Residue numbers refer to the chain shown, from its start.

For assay [1], the target named is Ubp6 UBL UBL (Saccharomyces cerevisiae) (UniProt P43593). To be noted: cited from earlier work.
Assay [2] has as its target T1, full-length Rpn1 (Saccharomyces cerevisiae, UniProt P38764 1-993).
T1 construct: Rpn1, proteasomal subunit, Saccharomyces cerevisiae, UniProt P38764, full length; Unlabeled in the NMR experiments; also called Rpn1^FL; source: E. coli, purified
T1 sequence (looked up): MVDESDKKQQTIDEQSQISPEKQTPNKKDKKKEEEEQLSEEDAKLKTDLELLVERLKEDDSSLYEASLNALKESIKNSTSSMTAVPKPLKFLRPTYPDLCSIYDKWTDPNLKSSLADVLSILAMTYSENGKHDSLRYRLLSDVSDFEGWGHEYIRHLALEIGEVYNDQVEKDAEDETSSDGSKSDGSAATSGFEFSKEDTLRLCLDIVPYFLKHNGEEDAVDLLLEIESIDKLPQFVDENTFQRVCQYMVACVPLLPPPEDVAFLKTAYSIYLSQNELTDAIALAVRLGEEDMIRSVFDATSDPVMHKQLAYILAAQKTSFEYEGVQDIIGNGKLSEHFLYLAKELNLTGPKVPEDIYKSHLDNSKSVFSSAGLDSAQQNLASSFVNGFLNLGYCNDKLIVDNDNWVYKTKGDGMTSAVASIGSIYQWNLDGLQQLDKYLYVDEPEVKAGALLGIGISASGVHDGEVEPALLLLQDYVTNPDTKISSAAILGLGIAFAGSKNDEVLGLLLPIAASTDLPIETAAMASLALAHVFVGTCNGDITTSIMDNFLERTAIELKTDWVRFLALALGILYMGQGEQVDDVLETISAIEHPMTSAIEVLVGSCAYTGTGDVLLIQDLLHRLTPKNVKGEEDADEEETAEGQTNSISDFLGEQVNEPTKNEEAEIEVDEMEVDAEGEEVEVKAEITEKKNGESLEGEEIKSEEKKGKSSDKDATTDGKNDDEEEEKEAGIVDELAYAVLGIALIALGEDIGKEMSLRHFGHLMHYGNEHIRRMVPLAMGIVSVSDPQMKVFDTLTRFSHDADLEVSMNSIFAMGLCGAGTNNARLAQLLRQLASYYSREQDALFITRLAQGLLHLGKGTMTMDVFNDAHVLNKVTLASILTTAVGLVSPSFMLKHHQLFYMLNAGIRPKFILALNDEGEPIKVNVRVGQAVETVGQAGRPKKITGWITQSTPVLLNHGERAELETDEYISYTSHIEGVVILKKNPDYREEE
Put plainly: NMR titration; competition: 150 μM ^15N-UBL with 1× Rpn10-UIM, then 0.3× Rpn1^FL (48 μM), then 2× or 3× Rpn10-UIM. Conditions: both partners purified.

The target in assay [3] is T1, full-length Rpn1. Put plainly: NMR titration; ^1H-^15N spectra of the ^15N-enriched protein or UBL domain with unlabeled Rpn1^FL (equimolar; excess for Ddi1); signal attenuation; 20 mM sodium phosphate, 150 mM NaCl, 1 mM TCEP, pH 6.8; 21-25 °C. To be noted: both partners purified.
The target in assay [4] is T2, Rpn1^391-642(AKAA) (Saccharomyces cerevisiae, UniProt P38764 391-642, L430A | D431K | Q434A | Q435A).
T2 construct: ^15N-enriched in the titration; source: E. coli, purified
T2 sequence (looked up): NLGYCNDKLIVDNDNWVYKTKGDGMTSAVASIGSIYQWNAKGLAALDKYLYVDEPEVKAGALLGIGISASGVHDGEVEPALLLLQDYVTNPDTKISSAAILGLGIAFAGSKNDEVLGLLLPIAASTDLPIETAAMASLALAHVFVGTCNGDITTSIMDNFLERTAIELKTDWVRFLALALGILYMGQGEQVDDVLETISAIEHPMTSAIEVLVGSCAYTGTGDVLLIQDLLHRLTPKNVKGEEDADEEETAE
In words: NMR titration; unlabeled Ubp6-UBL titrated into ^15N-Rpn1^391-642 or ^15N-Rpn1^391-642(AKAA); CSPs fitted to a single-site binding model, Kd as a global parameter; 50 mM HEPES, 50 mM KCl, 1 mM TCEP, pH 7.6; 21-25 °C. To be noted: both partners purified.

Assay [5] addresses T3, Rpn1^391-642 (Saccharomyces cerevisiae, UniProt P38764 391-642).
T3 construct: Used unlabeled, and ^15N-enriched for the titration with Ubp6-UBL; source: E. coli, purified
T3 sequence (looked up): T2 sequence (looked up) with A40L, K41D, A44Q, A45Q
Described as above. To be noted: both partners purified.

For assay [6], the target named is T3, Rpn1^391-642. Put plainly: NMR titration; ^1H-^15N spectra, CSPs and ^15N R2 of 150 μM ^15N-UBL or ^15N-^dK48-Ub2 with unlabeled Rpn1^391-642; 50 mM HEPES, 50 mM KCl, 1 mM TCEP, pH 7.6; 21-25 °C. Conditions: both partners purified.
The target in assay [7] is T4, Rpn10-UIM (Saccharomyces cerevisiae, UniProt P38886 204-268, Q261Y).
T4 construct: Rpn10, Saccharomyces cerevisiae, UniProt P38886, residues 204-268 with a Q261Y mutation for quantification purposes; also called UIM domain of Rpn10; source: E. coli, purified
T4 sequence (looked up): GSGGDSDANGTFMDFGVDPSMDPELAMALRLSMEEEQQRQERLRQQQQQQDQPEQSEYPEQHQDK
In words: NMR titration; ^1H-^15N spectra of 150 μM ^15N-UBL with 1× Rpn10-UIM; signal shifts. Conditions: both partners purified.

The target of assay [8] is T5, Rpn1^356-905 (Saccharomyces cerevisiae, UniProt P38764 356-905).
T5 construct: also called PC repeat region construct; source: E. coli, purified
T5 sequence (looked up): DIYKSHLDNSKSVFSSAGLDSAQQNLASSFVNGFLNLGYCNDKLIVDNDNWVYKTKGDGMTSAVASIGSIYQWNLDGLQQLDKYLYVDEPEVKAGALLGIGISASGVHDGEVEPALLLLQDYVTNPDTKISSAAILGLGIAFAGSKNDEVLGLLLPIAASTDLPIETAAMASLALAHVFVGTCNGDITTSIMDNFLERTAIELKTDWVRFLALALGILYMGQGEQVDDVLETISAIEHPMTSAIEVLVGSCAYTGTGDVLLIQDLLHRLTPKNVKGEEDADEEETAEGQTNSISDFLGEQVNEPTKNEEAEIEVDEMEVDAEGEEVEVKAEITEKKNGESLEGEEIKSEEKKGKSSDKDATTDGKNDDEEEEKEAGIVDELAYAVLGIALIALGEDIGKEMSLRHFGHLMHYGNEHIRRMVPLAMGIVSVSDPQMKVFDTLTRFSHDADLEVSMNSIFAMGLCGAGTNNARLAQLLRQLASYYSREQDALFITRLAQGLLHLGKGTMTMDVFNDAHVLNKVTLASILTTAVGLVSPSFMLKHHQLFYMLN
In words: NMR titration; ^1H-^15N spectra of ^15N-UBL with unlabeled Rpn1^356-905; 50 mM Tris-Cl, 200 mM KCl, 5% glycerol, 5 mM β-mercaptoethanol, pH 7.4; 21-25 °C. To be noted: both partners purified.

Assay [9] has as its target T5, Rpn1^356-905. Put plainly: NMR titration; competition: equimolar ^15N-UBL and Rpn1^356-905 with unlabeled competitor added stepwise (molar ratios 1 and 4); 50 mM Tris-Cl, 200 mM KCl, 5% glycerol, 5 mM β-mercaptoethanol, pH 7.4; 21-25 °C. Conditions: both partners purified.

Regarding Rpn1 391-642 (from UniProt P38764), the dissociation constant Kd in [1] was 40 µM.

B1: Rad23-UBL (residues 1-73) (domain or fragment, Saccharomyces cerevisiae, UniProt P32628 1-73, looked up)
chain: MVSLTFKNFKKEKVPLDLEPSNTILETKTKLAQSISCEESQIKLIYSGKVLQDSKTVSECGLKDGDQVVFMVS
notes: ^15N-enriched; source: E. coli, purified
As to B1, the binding result in assay [2] is “binds”.

B2: full-length Ubp6 (enzyme, Saccharomyces cerevisiae, UniProt P43593 1-499, looked up)
chain: MSGETFEFNIRHSGKVYPITLSTDATSADLKSKAEELTQVPSARQKYMVKGGLSGEESIKIYPLIKPGSTVMLLGTPDANLISKPAKKNNFIEDLAPEQQVQQFAQLPVGFKNMGNTCYLNATLQALYRVNDLRDMILNYNPSQGVSNSGAQDEEIHKQIVIEMKRCFENLQNKSFKSVLPIVLLNTLRKCYPQFAERDSQGGFYKQQDAEELFTQLFHSMSIVFGDKFSEDFRIQFKTTIKDTANDNDITVKENESDSKLQCHISGTTNFMRNGLLEGLNEKIEKRSDLTGANSIYSVEKKISRLPKFLTVQYVRFFWKRSTNKKSKILRKVVFPFQLDVADMLTPEYAAEKVKVRDELRKVEKEKNEKEREIKRRKFDPSSSENVMTPREQYETQVALNESEKDQWLEEYKKHFPPNLEKGENPSCVYNLIGVITHQGANSESGHYQAFIRDELDENKWYKFNDDKVSVVEKEKIESLAGGGESDSALILMYKGFGL
notes: Ubp6, deubiquitinase with a UBL domain, Saccharomyces cerevisiae, UniProt P43593, full length; source: E. coli, purified
In the case of B2, the binding result in [3] is on record as “binds”.

B3: Ubp6-UBL (domain or fragment, Saccharomyces cerevisiae, UniProt P43593 2-81, looked up)
chain: SGETFEFNIRHSGKVYPITLSTDATSADLKSKAEELTQVPSARQKYMVKGGLSGEESIKIYPLIKPGSTVMLLGTPDANL
notes: Ubp6, Saccharomyces cerevisiae, UniProt P43593, UBL domain, residues 2-81; Used ^15N-enriched or unlabeled; also called UBL domain of Ubp6; source: E. coli, purified
Turning to B3, the Kd in assay [4] turned out to be 36 ± 21 µM; in [5], 43 ± 22 µM.

B4: Dsk2-UBL (domain or fragment, Saccharomyces cerevisiae)
chain: SLNIHIKSGQDKWEVNVAPESTVLQFKEAINKANGIPVANQRLIYSGKILKDDQTVESYHIQDGHSVHLVKSQPKPLDLQPSLIS
notes: Dsk2, Saccharomyces cerevisiae, UniProt P48510, UBL domain, residues 2-77; also called UBL domain of Dsk2; source: E. coli, purified
Consider B4, for which the binding result in [6], in [2], in [7] and in [8] was “binds” in each case.

B5: full-length Dsk2 (natural protein, Saccharomyces cerevisiae, UniProt P48510 1-373, looked up)
chain: MSLNIHIKSGQDKWEVNVAPESTVLQFKEAINKANGIPVANQRLIYSGKILKDDQTVESYHIQDGHSVHLVKSQPKPQTASAAGANNATATGAAAGTGATPNMSSGQSAGFNPLADLTSARYAGYLNMPSADMFGPDGGALNNDSNNQDELLRMMENPIFQSQMNEMLSNPQMLDFMIQSNPQLQAMGPQARQMLQSPMFRQMLTNPDMIRQSMQFARMMDPNAGMGSAGGAASAFPAPGGDAPEEGSNTNTTSSSNTGNNAGTNAGTNAGANTAANPFASLLNPALNPFANAGNAASTGMPAFDPALLASMFQPPVQASQAEDTRPPEERYEHQLRQLNDMGFFDFDRNVAALRRSGGSVQGALDSLLNGDV
notes: Dsk2, UBL-UBA shuttle protein, Saccharomyces cerevisiae, UniProt P48510, full length; ^15N-enriched; source: E. coli, purified
Take B5: in [3], the binding result is reported as “binds”.

B6: full-length Rad23 (natural protein, Saccharomyces cerevisiae, UniProt P32628 1-398, looked up)
chain: MVSLTFKNFKKEKVPLDLEPSNTILETKTKLAQSISCEESQIKLIYSGKVLQDSKTVSECGLKDGDQVVFMVSQKKSTKTKVTEPPIAPESATTPGRENSTEASPSTDASAAPAATAPEGSQPQEEQTATTERTESASTPGFVVGTERNETIERIMEMGYQREEVERALRAAFNNPDRAVEYLLMGIPENLRQPEPQQQTAAAAEQPSTAATTAEQPAEDDLFAQAAQGGNASSGALGTTGGATDAAQGGPPGSIGLTVEDLLSLRQVVSGNPEALAPLLENISARYPQLREHIMANPEVFVSMLLEAVGDNMQDVMEGADDMVEGEDIEVTGEAAAAGLGQGEGEGSFQVDYTPEDDQAISRLCELGFERDLVIQVYFACDKNEEAAANILFSDHAD
notes: Rad23, UBL-UBA shuttle protein, Saccharomyces cerevisiae, UniProt P32628, full length; ^15N-enriched; source: E. coli, purified
For the molecule B6, the binding result in assay [3] is listed as “binds”.

B7: Rad23-UBL (residues 2-77) (domain or fragment, Saccharomyces cerevisiae, UniProt P32628 2-77, looked up)
chain: VSLTFKNFKKEKVPLDLEPSNTILETKTKLAQSISCEESQIKLIYSGKVLQDSKTVSECGLKDGDQVVFMVSQKKS
notes: Rad23, Saccharomyces cerevisiae, UniProt P32628, UBL domain, residues 2-77; also called UBL domain of Rad23; source: E. coli, purified
With B7, the binding result in assay [3], in [6] and in [9] was “binds” throughout.

What is called Kd is the constant that tells how readily two partners part at equilibrium.
